This is an account of results in publication PMC12289034, “A highly potent human antibody neutralizing all serotypes of BK polyomavirus” (PLOS Pathogens, 2025).

Assay [1] addresses BKPyV VP1 serotype Ib1 pentamer (aa 31-300) (BK polyomavirus) (UniProt P03088). Put plainly: crystal structure; VP1 Ib1 pentamer mixed with 319C07 Fab 1:1.7, complex isolated by SEC; hanging drop, 20 °C, 21% PEG1500, 0.1 M MIB pH 4.75; 1.96 Å. On the technique in general: SEC sorts molecules by how far they enter the pores of the column.
Assay [2] concerns the target T1, BKPyV VP1 serotype II pentamer (aa 31-300) (BK polyomavirus serotype II, isolate …, UniProt A1IHZ0, strain). Put plainly: cell-based or functional assay.
Assay [3] has as its target T2, BKPyV VP1 serotype III (BK polyomavirus, serotype III (isolate …, UniProt P14996, strain)). The assay can be described thus: cell-based or functional assay.
In assay [4] the target is T3, BKPyV VP1 serotype IVc2 pentamer (aa 31-300) (BK polyomavirus serotype IVc2, isolate …, UniProt B6VQF5, strain). The assay can be described thus: cell-based or functional assay.
Assay [5] deals with T1, BKPyV VP1 serotype II pentamer (aa …). The assay can be described thus: ELISA; VP1 coated on the plate (1 µg/ml, 4 °C over weekend), blocked with 5% skim milk; antibody dilutions in PBS with 0.5% skim milk 1 h; HRP goat anti-human IgG; apparent EC50, three-parameter fit. Particulars: both partners purified. A general note: In an ELISA, binding on a coated surface is turned into a signal by an enzyme label.

The target in assay [6] is T2, BKPyV VP1 serotype III. The assay is described as above. Particulars: both partners purified.
For assay [7], the target named is T3, BKPyV VP1 serotype IVc2 pentamer (aa …). The assay is described as above. Particulars: both partners purified.

As for “BKPyV VP1 serotype Ib1 pentamer (aa 31-300) (from UniProt P03088 31-300) (domain or fragment)”, in assay [1], the stoichiometry N was determined as 5.

B1: mAb 319C07 (antibody, V domains shown)
VH: QVQLQQWGAGLLKPSETLSLTCAVYRGSFSAYYWTWFRQPPGKGLEWIGEINHRGYTNYNPSLRGRVSISVDTSKKQFSLKLRSVNAADTAVYYCATLRSTSGWHDYFDYWGQGTLVTVSS
VL: EIVLTQSPGTLSLSPGERATLSCRASQSVSSSYLAWYQQTPGQAPRLLIYGASSRATGIPDRFSGSGSGTDFTLTISRLEPEDFVVYFCLQYGSSPLTFGPGTKVDIK
notes: heavy chain variable region of 319C07; human IgG1 heavy chain constant region (soluble IgG1 expression vector); kappa light chain of 319C07; also called antibody 319C07; AntiBKV; source: HEK293F, transient transfection, purified from supernatant (Protein G)
Regarding B1, the “IC50 of neutralisation of BKPyV serotype II pseudovirus (luciferase in HEK293TT cells, 72 h)” value in assay [2] stood at 0.00035 nM. The “IC50 of neutralisation of BKPyV serotype III pseudovirus (luciferase in HEK293TT cells, 72 h)” value in assay [3] amounted to 0.0295 nM. In assay [4], the “IC50 of neutralisation of BKPyV serotype IV pseudovirus (luciferase in HEK293TT cells, 72 h)” value turned out to be 0.00088 nM. Further, the half-maximal effective concentration (EC50) in assay [5], in assay [6] and in assay [7] was 0.06 nM throughout.

In general, stoichiometry N refers to a count of units in the complex or per binding partner. What is called EC50 is the concentration at which the effect is half-maximal.
